Experimental data taken from patent publication US11726091B2, “Compositions and methods of diagnosing pancreatic cancer” (THE REGENTS OF THE UNIVERSITY OF CALIFORNIA, priority 2017, dated 2023).
Where a SMILES comes first, the peptide text is derived from it. Where no end group is shown, it is not given here. [ ]: non-standard residue; d: D form. The star is where a group is joined. Sta = CC(C)C[C@H](N)[C@@H](O)CC(=O)O; Isovaleryl = CC(C)CC(=O)*

Assays:
[1] = tested on: protease activity of mucinous cyst fluid sample; experiment: MSP-MS analysis of protease inhibitor sensitivity in mucinous cyst fluid; format: biochemical, human; settings: for number of mucinous-specific substrates whose cleavage was inhibited: 1 mM AEBSF, 2 mM 1,10-phenanthroline
Protocol: (§1) The MSP-MS assay was performed as previously described (34). Cyst fluid was diluted to 100 μg/mL in assay buffer (either pH 7.5 phosphate buffer or pH 3.5 acetate buffer) and pre-incubated for 10 minutes. For analysis of protease inhibitor sensitivity, 1 mM AEBSF (Sigma, A8456), 2 μM E-64 (Sigma, E3132), 2 μM pepstatin (Sigma, P5318), 2 mM 1,10-phenanthroline (Sigma, 131337), or DMSO were included in pre-incubation. The 228 tetradecapeptide library was split into two pools and diluted in assay buffer to a concentration of 1 μM of each peptide. 75 μL of diluted cyst fluid and peptide pools were then combined and incubated at room temperature. 30 μL aliquots were removed after 15 and 60 minutes, protease activity quenched with 8 M guanidinium hydrochloride, and flash-frozen in liquid N2. For recombinant gastricsin (R&D Systems, 6186-AS), cathepsin D (R&D Systems, 1014-AS), and cathepsin E (R&D Systems, 1294-AS), the MSP-MS assay was performed as described above with slight modifications: 10 nM of recombinant protease in pH 3.5 acetate buffer was used and aliquots were removed after 15, 60, and 240 minutes.
(§2) Prior to peptide cleavage site identification by mass spectrometry, samples were desalted using C18 tips (Rainin). Mass spectrometry analysis was carried out with an LTQ Orbitrap XL mass spectrometer coupled to a 10,000 psi nanoACQUITY Ultra Performance Liquid Chromatography (UPLC) System (Waters) for peptide separation by reverse phase liquid chromatography (RPLC). Peptides were separated over a C18 column (Thermo) and eluted by applying a flow rate of 300 nL/min with a 65-minute linear gradient from 2-30% acetonitrile. Survey scans were recorded over a 325-1500 m/z range and the six most intense precursor ions were fragmented by collision-induced dissociation (CID) for MS/MS.
(§3) Raw mass spectrometry data was processed to generate peak lists using MSConvert. Peak lists were then searched in Protein Prospector v. 5.10.0 (35) against a custom database containing the sequences from the 228 tetradecapeptide library. Searches used a mass accuracy tolerance of 20 ppm for precursor ions and 0.8 Da for fragment ions. Variable modifications included N-terminal pyroglutamate conversion from glutamine or glutamate and oxidation of tryptophan, proline, and tyrosine. Searches were subsequently processed using the MSP-xtractor software (http://www.craiklab.ucsf.edu/extractor.html), which extracts the peptide cleavage site and spectral counts of the corresponding cleavage products. Spectral counts were used for the relative quantification of peptide cleavage products.

[2] = tested on: cathepsin E and gastricsin protease activity in cyst fluid; experiment: Pepstatin inhibition of fluorescent substrate cleavage by mucinous cyst fluid; format: biochemical, human; settings: fluid from a mucinous cyst, pre-incubation with 2 μM pepstatin; FIG. 11
Protocol: All fluorescent protease activity assays were performed in triplicate in black, round-bottom 384 well plates. Assays were run for 1 hour in 15 μL of acetate buffer with 0.01% Tween. The pH of the acetate buffer was adjusted to promote activity of either aspartyl protease (pH 3.5 for the cathepsin E substrate and pH 2.0 for the gastricsin substrate). 10 μM of substrate was used for all assays (unless otherwise indicated) and was incubated with either 10 nM of recombinant protease or 50 μg/mL of cyst fluid protein. For kinetic analysis of gastricsin activity, the substrate concentration ranged from 0.1-25 μM. For analysis of inhibitor sensitivity, cyst fluid samples were pre-incubated with 2 μM of pepstatin. Fluorescent substrate cleavage was monitored with a Biotek Synergy HT plate reader using excitation and emission wavelengths of 328 nm and 393 nm, respectively. Selectivity of the recombinant proteases was assessed by comparing the initial velocity of substrate hydrolysis in relative fluorescent units per second (RFU/sec). For cyst fluid samples, the change in endpoint RFU was compared relative to wells that contained substrate, but no cyst fluid.

Cathepsin E [3] = molecular target: T1, Cathepsin E (Homo sapiens, UniProt P14091); experiment: Fluorescent protease activity assay with recombinant cathepsin E; format: biochemical; set-up: purchased R&D Systems 1294-AS
T1 sequence (P14091 54-396): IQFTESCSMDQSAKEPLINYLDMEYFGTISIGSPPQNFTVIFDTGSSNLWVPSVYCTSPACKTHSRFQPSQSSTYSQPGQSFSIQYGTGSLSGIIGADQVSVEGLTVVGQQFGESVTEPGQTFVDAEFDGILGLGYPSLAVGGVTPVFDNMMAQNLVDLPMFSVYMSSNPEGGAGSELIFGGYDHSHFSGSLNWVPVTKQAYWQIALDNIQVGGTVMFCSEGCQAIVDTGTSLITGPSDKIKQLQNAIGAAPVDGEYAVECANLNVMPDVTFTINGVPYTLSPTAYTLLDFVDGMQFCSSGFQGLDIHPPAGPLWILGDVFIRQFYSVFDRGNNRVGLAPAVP
Protocol: (§4) Synthesis of internally quenched fluorescent peptides was conducted using Fmoc solid-phase peptide synthesis on a Syro II automated synthesizer (Biotage). Briefly, reactors were charged with Wang resin preloaded with Fmoc-Lys(dinitrophenol) (Anaspec, A23856). Coupling reactions were conducted on a 0.0125 mmol scale in 500 μL of DMF with 5 equivalents of Fmoc amino acid (Anaspec), 4.9 equivalents of HCTU (Anaspec), and 20 equivalents of N-methylmorpholine (NMM). Fmoc deprotection was conducted by incubation with 500 μL 40% 4-methlypiperidine in DMF, followed by 500 μL 20% 4-methlypiperidine in DMF. Substrates were capped with a […] Lys-(7-methoxycoumarin-4-acetic acid)-OH (EMD Millipore, 852095) followed by two D-Arg residues to enhance solubility. Peptides were removed from resin by incubating with 500 μL of cleavage solution (95% trifluoroacetic acid, 2.5% water, 2.5% Triisopropylsilane). […]
(§5) All fluorescent protease activity assays were performed in triplicate in black, round-bottom 384 well plates. […] Fluorescent substrate cleavage was monitored with a Biotek Synergy HT plate reader using excitation and emission wavelengths of 328 nm and 393 nm, respectively. Selectivity of the recombinant proteases was assessed by comparing the initial velocity of substrate hydrolysis in relative fluorescent units per second (RFU/sec). […]

Cathepsin E [4] = molecular target: T1, Cathepsin E; experiment: Cathepsin E fluorescent substrate assay in patient cyst fluid, mucinous vs nonmucinous cysts; set-up: both proteases are released into cyst fluid in their proforms; from tissue; host or cells: human pancreatic cyst fluid; settings: differentiating mucinous from nonmucinous cysts; 110 cyst fluid samples; cutoff 1.23-fold change in fluorescence
Text: (§6) Pancreatic cyst fluid samples were collected from preconsented patients under institutional review board oversight. All patients included in the study underwent surgical resection of their cystic lesion and have a pathologically confirmed diagnosis. The highest grade of dysplasia observed during pathological evaluation of each cystic lesion is reported. Samples were collected either at the time of surgical resection or during diagnostic endoscopic ultrasound prior to resection of the cystic lesion. Cyst fluid samples were split into 100 μL aliquots and frozen to −80° C. within 60 minutes of collection. Samples underwent at most two freeze-thaw cycles prior to experimental analysis. Total cyst fluid protein concentration was determined by the bicinchoninic acid assay. CEA levels were evaluated for the majority of samples, but were unavailable in 21 cases due to limited cyst fluid volume.
as §5, with “plates. Assays were run for 1 hour in 15 μL of acetate buffer with 0.01% Tween.” for “plates.”

Gastricsin [5] = molecular target: T2, Gastricsin (Homo sapiens, UniProt P20142); experiment: Gastricsin fluorescent substrate assay in patient cyst fluid, mucinous vs nonmucinous cysts; set-up: both proteases are released into cyst fluid in their proforms; from tissue; host or cells: human pancreatic cyst fluid; settings: differentiating mucinous from nonmucinous cysts; 110 cyst fluid samples; cutoff 1.23-fold change in fluorescence
T2 sequence (P20142 60-388): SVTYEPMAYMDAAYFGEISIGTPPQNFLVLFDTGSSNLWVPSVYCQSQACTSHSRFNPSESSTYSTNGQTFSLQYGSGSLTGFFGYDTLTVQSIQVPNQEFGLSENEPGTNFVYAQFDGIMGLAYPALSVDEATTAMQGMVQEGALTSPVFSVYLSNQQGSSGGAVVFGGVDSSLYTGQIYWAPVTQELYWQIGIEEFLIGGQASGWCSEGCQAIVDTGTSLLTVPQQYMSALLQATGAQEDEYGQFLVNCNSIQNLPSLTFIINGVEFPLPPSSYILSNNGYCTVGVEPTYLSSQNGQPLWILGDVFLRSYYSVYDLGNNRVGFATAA
Text: as §6
as §5, with “plates. Assays were run for 1 hour in 15 μL of acetate buffer with 0.01% Tween.” for “plates.”

Gastricsin [6] = molecular target: T2, Gastricsin; experiment: Fluorescent protease activity assay with recombinant gastricsin; format: biochemical; set-up: purchased R&D Systems 6186-AS
Protocol: as §4, §5

Gastricsin [7] = molecular target: T2, Gastricsin; experiment: Cleavage of peptide substrates by gastricsin (MSP-MS assay); format: biochemical; set-up: purchased R&D Systems 6186-AS; settings: Target Protease Gastricsin; for Relative Cleavage: relative to the most cleaved substrate (1.00)
Protocol: as §1, §2, §3

Cathepsin E [8] = molecular target: T1, Cathepsin E; experiment: Cleavage of peptide substrates by cathepsin E (MSP-MS assay); format: biochemical; set-up: purchased R&D Systems 1294-AS; settings: Target Protease Cathepsin E; for Relative Cleavage: relative to the most cleaved substrate (1.00)
Protocol: as §1, §2, §3

[9] = single mucinous cyst fluid sample, FIG. 2A
[10] = single mucinous cyst fluid sample, 2 μM pepstatin, FIG. 2A

For `c1cnc2c(c1)ccc1cccnc12` [1,10-phenanthroline], the “number of mucinous-specific substrates whose cleavage was inhibited” value [1, 9] was 3 substrates.
`Cl.NCCc1ccc(S(=O)(=O)F)cc1` [AEBSF] was tested, and the “number of mucinous-specific substrates whose cleavage was inhibited” value [1, 9] was 3 substrates.
For `CC(C)CC(=O)N[C@H](C(=O)N[C@H](C(=O)N[C@@H](CC(C)C)[C@@H](O)CC(=O)N[C@@H](C)C(=O)N[C@@H](CC(C)C)[C@@H](O)CC(=O)O)C(C)C)C(C)C` [pepstatin] (Isovaleryl-VV[Sta]A[Sta]-OH), the “inhibition of cleavage of gastricsin and cathepsin E fluorescent substrates” value [2] was “fully inhibited”, the “effect on cleavage of the mucinous-specific substrates” value ([1]; second mucinous cyst fluid sample, FIG. 8) was “block cleavage of the majority of the mucinous-specific substrates” and the “number of additional mucinous-specific substrates whose cleavage was partially inhibited” value [1, 10] was 8 substrates. The “number of mucinous-specific substrates whose cleavage was fully inhibited” value [1, 10] was 20 substrates.
With “AGFSLPA (also: fluorophore/quencher) [AGFSL|PA]” the “limit-of-detection of cathepsin E” value (Cathepsin E [3]; fluorescence-based activity assay, FIG. 17) was “approximately 4 μg/mL”, the “selectivity for cathepsin E over both cathepsin D and gastricsin” value (Cathepsin E [3]; initial velocity of substrate hydrolysis, 10 nM recombinant protease, 10 μM substrate) was “more than 100 fold” and the Sensitivity (Cathepsin E [4]) was 70%. For the same compound, the Specificity (Cathepsin E [4]) was 92%.
With “DEGWALQH (also: fluorophore and quencher) [DEGW|ALQH]” the Sensitivity (Gastricsin [5]) was 93%, the Specificity (Gastricsin [5]) was 100% and the limit-of-detection of gastricsin (Gastricsin [6]; fluorescence-based activity assay, FIG. 16) was “approximately 600 ng/mL”. For the same compound, the “selectivity for gastricsin over both cathepsins D and E” value (Gastricsin [6]; initial velocity of substrate hydrolysis, 10 nM recombinant protease, 10 μM substrate (FIG. 4D)) was “greater than 120 fold”, the “Total Cleavage” value (Gastricsin [7]) was 30 and the “Relative Cleavage” value (Gastricsin [7]) was 0.47.
In the case of “FGIFYLNG [FGIF|YLNG, cathepsin E peptide substrate]”, the “Total Cleavage” value (Cathepsin E [8]) is reported as 22 and the “Relative Cleavage” value (Cathepsin E [8]) is reported as 0.88.
For “GLYFRYE [GLY|FRYE, cathepsin E peptide substrate]”, the “Total Cleavage” value (Cathepsin E [8]) was 25 and the “Relative Cleavage” value (Cathepsin E [8]) was 1.00.
For “HMIALYWG [HMIA|LYWG, cathepsin E peptide substrate]”, the “Total Cleavage” value (Cathepsin E [8]) was 10 and the “Relative Cleavage” value (Cathepsin E [8]) was 0.40.
“IKILMFYW [IKIL|MFYW, cathepsin E peptide substrate]” was tested, and the “Total Cleavage” value (Cathepsin E [8]) was 17 and the “Relative Cleavage” value (Cathepsin E [8]) was 0.68.
In the case of “NMKWTRVL [NMKW|TRVL, gastricsin peptide substrate]”, the “Total Cleavage” value (Gastricsin [7]) is reported as 21 and the “Relative Cleavage” value (Gastricsin [7]) is reported as 0.33.
With “PWTWYGVK [PWTW|YGVK, gastricsin peptide substrate]” the “Total Cleavage” value (Gastricsin [7]) was 64 and the “Relative Cleavage” value (Gastricsin [7]) was 1.00.
“VGKWSYRM [VGKW|SYRM, gastricsin peptide substrate]” was tested, and the “Total Cleavage” value (Gastricsin [7]) was 22 and the “Relative Cleavage” value (Gastricsin [7]) was 0.34.
